The text below walks through data of PMC3681763 (2013).

B1: (VC1)RAGE-GFP (domain or fragment)
chain: AQNITARIGEPLVLKCKGAPKKPPQRLEWKLNTGRTEAWKVLSPQGGGPWDSVARVLPNGSLFLPAVGIQDEGIFRCQAMNRNGKETKSNYRVRVYQIPGKPEIVDSASELTAGVPNKVGTCVSEGSYPAGTLSWHLDGKPLVPNEKGVSVKEQTRRHPETGLFTLQSELMVTPARGGDPRPTFSCSFSPGLPRHRALRTAPIQPRVWEPVPLEEVQLVVEPEG
B2: Peptide aptamer PA #103 (anti-C2 domain), purified, in the D26A, K57E Thioredoxin scaffold (designed binder)
chain: SDKIIHLTDDSFDTDVLKADGAILVAFWAEWIQLRVRMKLVKMIAPILDEIADEYQGKLTVAELNIDQNPGTAPKYGIRGIPTLLLFKNGEVAATKVGALSKGQLKEFLDANLA
B3: (C2)RAGE-GFP (domain or fragment)
chain: EPVPLEEVQLVVEPEGGAVAPGGTVTLTCEVPAQPSPQIHWMKDGVPLPLPPSPVLILPEIGPQDQGTYSCVATHSSHGPQESRAVSISIIEPGEEGPTAGSVGGS

What all share (experiment): ELISA
The target in assay [1] is Peptide aptamer PA #44 (anti-V domain), purified, in the D26A, K57E Thioredoxin scaffold (E. coli, UniProt P0AA25 = thioredoxin).
Assay [2] has as its target Peptide aptamer PA #27 (anti-C1 domain), purified, in the D26A, K57E Thioredoxin scaffold (E. coli, UniProt P0AA25 = thioredoxin).
A further assay deals with Apt#48.
The target in a further assay is Apt#31.
The assay “(C2)RAGE-GFP” addresses B3.
Assay [3] concerns the target Peptide aptamer PA #71 (anti-C2 domain), purified, in the D26A, K57E Thioredoxin scaffold (E. coli, UniProt P0AA25 = thioredoxin).

Regarding B1, the Kd in assay [1] was 164 nM; in assay [2] it was 32 nM; in the assay with Apt#48 it was 152 nM; with Apt#31 it was 42 nM.
B2 returned an equilibrium dissociation constant (Kd) with (C2)RAGE-GFP of 1340 nM.
The molecule B3 registered a Kd in assay [3] of 14500 nM.

Broadly, the Kd is the equilibrium constant for the complex coming apart.
